Experimental data as given in publication PMC8302766.

Columns and labels:
Conditions in all cases: domain or fragment, No outside chemistry for unlabelled SAXS/AUC samples. Limits are not given, convention is residues 186-320 of short isoform A1-A (isoform B insert 252-303 absent). The hexapeptide 259-264 (311-316 in P09651) is taken as deleted because the printed 7.5 mg/mL = 0.598 mM gives about 12.54 kDa, which fits the delta-hexa form plus an assumed N-terminal GS cleavage scar (about 12.53 kDa), modification not given
[1] = target: low-complexity domain of hnRNPA1 (A1-LCD); experiment: AUC; isodesmic model, 50 mM NaCl
[2] = target: low-complexity domain of hnRNPA1 (A1-LCD); experiment: AUC; two-step isodesmic model, KD1 (first step), 50 mM NaCl
[3] = target: low-complexity domain of hnRNPA1 (A1-LCD); experiment: AUC; two-step isodesmic model, KD2 (later steps), 50 mM NaCl

- Kd [1]: 3000 µM
- Kd [2]: 5400 µM
- Kd [3]: 2200 µM
B1: low-complexity domain of hnRNPA1 (A1-LCD) (protein)
chain: MASASSSQRGRSGSGNFGGGRGGGFGGNDNFGRGGNFSGRGGFGGSRGGGGYGGSGDGYNGFGNDGSNFGGGGNYNNQSSNFGPMKGGNFGGRSSGPYGGGGQYFAKPRNQGGYGGSSSSSSYGSGRRF
